Data from paper PMC3662692.
One block for each molecule: values may come before it.

What was measured:
[1] = biological target: p85 regulatory subunit of PI3 kinase (PI3K-p85; p85α in Table 1) (UniProt P27986); assay: biotin-peptide streptavidin-agarose pull-down, Western blot; settings: reference: non-phosphorylated Cav1 peptide; sites Y14
[2] = biological target: phospholipase Cγ1 (PLCγ1) (UniProt P19174); assay: as above; settings: reference: non-phosphorylated Cav1 peptide; sites Y14
[3] = biological target: T1, caveolin-1 (human (endogenous in Chang cells)), Q03135; assay: co-IP; as a1, but Chang cells infected with N138 (PorBIB, P+) at MOI 20 for 1 h; endogenous Cav1 precipitated, Western blot; settings: remark: other sources report otherwise
T1 chain: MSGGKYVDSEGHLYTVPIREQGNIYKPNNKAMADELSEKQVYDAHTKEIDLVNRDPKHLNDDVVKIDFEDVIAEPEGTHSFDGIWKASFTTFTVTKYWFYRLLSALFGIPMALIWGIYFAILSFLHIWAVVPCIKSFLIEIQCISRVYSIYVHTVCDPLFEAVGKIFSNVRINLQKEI

[4] = biological target: T1, caveolin-1 (human (endogenous in Chang …)); assay: co-IP; endogenous Cav1 precipitated with anti-Caveolin antibody (BD Transduction) and Protein G magnetic beads from Chang cell lysates (20 mM Tris, 150 mM NaCl, 1% Triton-X-100, pH 7.5); cells not infected or infected with N927 (PorBIA, P-) at MOI 20 for 1 h; in one experiment PLCγ1 inhibitor U73122 (10 µM) added 30 min before infection; Western blot; settings: remark: other sources report otherwise

Molecule: caveolin-1 (Cav1) 7-21 (from UniProt Q03135) Cav1 pY14 peptide
binding against the reference [1]: gained
binding against the reference [2]: gained

relative amount of Vav2 in the Cav1 precipitate, cells infected with N138 (non-infected cells = 100%) [3]: 99%
relative amount of Vav2 in the Cav1 precipitate, cells infected with N927 (non-infected cells = 100%) [4]: 50%
relative amount of Vav2 in the Cav1 precipitate, non-infected cells (reference) [4]: 100%
B1: Vav2, P52735 1-878 (natural protein)
chain: MEQWRQCGRWLIDCKVLPPNHRVVWPSAVVFDLAQALRDGVLLCQLLHNLSPGSIDLKDINFRPQMSQFLCLKNIRTFLKVCHDKFGLRNSELFDPFDLFDVRDFGKVISAVSRLSLHSIAQNKGIRPFPSEETTENDDDVYRSLEELADEHDLGEDIYDCVPCEDGGDDIYEDIIKVEVQQPMIRYMQKMGMTEDDKRNCCLLEIQETEAKYYRTLEDIEKNYMSPLRLVLSPADMAAVFINLEDLIKVHHSFLRAIDVSVMVGGSTLAKVFLDFKERLLIYGEYCSHMEHAQNTLNQLLASREDFRQKVEECTLKVQDGKFKLQDLLVVPMQRVLKYHLLLKELLSHSAERPERQQLKEALEAMQDLAMYINEVKRDKETLRKISEFQSSIENLQVKLEEFGRPKIDGELKVRSIVNHTKQDRYLFLFDKVVIVCKRKGYSYELKEIIELLFHKMTDDPMNNKDVKKSHGKMWSYGFYLIHLQGKQGFQFFCKTEDMKRKWMEQFEMAMSNIKPDKANANHHSFQMYTFDKTTNCKACKMFLRGTFYQGYMCTKCGVGAHKECLEVIPPCKFTSPADLDASGAGPGPKMVAMQNYHGNPAPPGKPVLTFQTGDVLELLRGDPESPWWEGRLVQTRKSGYFPSSSVKPCPVDGRPPISRPPSREIDYTAYPWFAGNMERQQTDNLLKSHASGTYLIRERPAEAERFAISIKFNDEVKHIKVVEKDNWIHITEAKKFDSLLELVEYYQCHSLKESFKQLDTTLKYPYKSRERSASRASSRSPASCASYNFSFLSPQGLSFASQGPSAPFWSVFTPRVIGTAVARYNFAARDMRELSLREGDVVRIYSRIGGDQGWWKGETNGRIGWFPSTYVEEEGIQ
